{"source": "patent US20210023171A1", "about": "(published 2021)", "binders": {"B1": {"name": "synthetic AgRP peptide 7C (without epitope tags) (peptide)", "chain": "GCVRLHESCLGQQVPCCDPAATCYCYGRGDNDLRCYCR", "notes": "also called AgRP Clone 7C; Agouti peptide 7C"}, "B2": {"name": "Miniprotein 2.5D (synthetic, soluble) (peptide)", "chain": "GCPQGRGDWAPTSCSQDSDCRAGCVCGPNGFCG", "notes": "also called knottin peptide 2.5D; RGD-miniprotein 2.5D"}, "B3": {"name": "FN-RDG (EETI-based polypeptide with a scrambled RDG sequence, negative control) (peptide)", "chain": "GCVTGRDGSPASSCSQDSDCLAGCVCGPNGFCG", "notes": "Inferred; also called scrambled FN-RDG; FN-RDG2"}, "B4": {"name": "recombinant AgRP peptide 7C (FLAG and hexahistidine tagged) (peptide)", "chain": "DYKDDDDKGCVRLHESCLGQQVPCCDPAATCYCYGRGDNDLRCYCRHHHHHH"}, "B5": {"name": "recombinant engineered AgRP peptide 7A (FLAG and hexahistidine tagged) (peptide)", "chain": "DYKDDDDKGCVRLHESCLGQQVPCCDPAATCYCSGRGDNDLVCYCRHHHHHH", "notes": "also called 7A (5E); 5E"}}, "key": {"[1]": {"biological_target": "T1, αvβ3 integrin on cells (U87MG glioblastoma cells; K562-αvβ3 cells) (UniProt P06756 31-1048; P05106 27-788)", "T1 construct": "whole, on cells; also called cell surface αvβ3 integrin", "T1 sequence (P06756 31-1048, chain 1 of 2)": "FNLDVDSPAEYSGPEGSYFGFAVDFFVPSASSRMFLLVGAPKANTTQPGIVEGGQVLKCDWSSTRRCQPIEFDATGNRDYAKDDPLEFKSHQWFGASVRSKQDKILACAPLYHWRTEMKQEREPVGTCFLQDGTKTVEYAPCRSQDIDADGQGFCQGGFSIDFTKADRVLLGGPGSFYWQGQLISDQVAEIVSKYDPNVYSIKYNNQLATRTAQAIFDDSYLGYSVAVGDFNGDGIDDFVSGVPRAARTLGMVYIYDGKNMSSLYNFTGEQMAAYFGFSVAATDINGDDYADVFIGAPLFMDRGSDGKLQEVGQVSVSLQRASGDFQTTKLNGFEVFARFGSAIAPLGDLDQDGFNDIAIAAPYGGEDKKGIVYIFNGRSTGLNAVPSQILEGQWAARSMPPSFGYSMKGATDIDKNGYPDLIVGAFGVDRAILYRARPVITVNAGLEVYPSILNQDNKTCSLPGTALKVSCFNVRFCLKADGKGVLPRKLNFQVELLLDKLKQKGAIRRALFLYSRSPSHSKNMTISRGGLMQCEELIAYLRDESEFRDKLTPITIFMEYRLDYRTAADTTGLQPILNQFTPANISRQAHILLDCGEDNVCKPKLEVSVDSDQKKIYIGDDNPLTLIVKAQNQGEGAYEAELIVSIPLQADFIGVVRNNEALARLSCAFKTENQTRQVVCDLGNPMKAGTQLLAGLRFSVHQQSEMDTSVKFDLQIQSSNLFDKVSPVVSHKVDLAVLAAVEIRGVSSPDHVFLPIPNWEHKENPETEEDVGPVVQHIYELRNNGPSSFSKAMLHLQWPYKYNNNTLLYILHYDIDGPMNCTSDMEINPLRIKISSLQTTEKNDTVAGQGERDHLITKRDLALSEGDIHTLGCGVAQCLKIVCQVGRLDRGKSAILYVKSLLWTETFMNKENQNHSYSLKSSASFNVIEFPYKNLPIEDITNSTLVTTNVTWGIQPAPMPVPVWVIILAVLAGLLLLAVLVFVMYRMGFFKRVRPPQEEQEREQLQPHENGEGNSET", "T1 sequence (P05106 27-788, chain 2 of 2)": "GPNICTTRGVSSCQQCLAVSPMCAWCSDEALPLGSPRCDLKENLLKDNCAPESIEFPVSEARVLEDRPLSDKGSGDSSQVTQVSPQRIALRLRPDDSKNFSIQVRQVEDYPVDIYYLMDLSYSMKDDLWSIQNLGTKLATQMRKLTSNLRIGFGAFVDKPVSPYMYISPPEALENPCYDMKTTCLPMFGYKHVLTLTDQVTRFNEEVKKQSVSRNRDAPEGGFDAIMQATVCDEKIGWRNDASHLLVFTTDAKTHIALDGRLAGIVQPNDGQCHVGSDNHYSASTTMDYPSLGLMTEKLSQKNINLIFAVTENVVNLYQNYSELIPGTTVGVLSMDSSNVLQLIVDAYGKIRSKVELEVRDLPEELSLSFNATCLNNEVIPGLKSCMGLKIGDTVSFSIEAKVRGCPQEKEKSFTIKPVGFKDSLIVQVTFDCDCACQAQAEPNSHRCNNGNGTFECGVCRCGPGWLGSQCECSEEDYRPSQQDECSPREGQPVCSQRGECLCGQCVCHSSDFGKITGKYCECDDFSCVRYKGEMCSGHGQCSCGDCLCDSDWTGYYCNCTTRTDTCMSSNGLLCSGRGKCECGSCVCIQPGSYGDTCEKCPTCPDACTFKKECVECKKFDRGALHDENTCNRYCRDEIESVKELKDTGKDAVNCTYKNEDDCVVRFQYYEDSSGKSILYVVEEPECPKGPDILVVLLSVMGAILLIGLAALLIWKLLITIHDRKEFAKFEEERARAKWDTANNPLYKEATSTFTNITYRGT", "assay": "competing off ^125I-echistatin, U87MG cells"}, "[2]": {"biological_target": "T1, αvβ3 integrin on cells (U87MG …)", "assay": "competition on U87MG cells against 20 nM recombinant FLAG/His 7C, anti-FLAG flow cytometry"}, "[3]": {"biological_target": "T2, αvβ3 integrin (soluble / detergent-solubilized) (UniProt P06756 31-1048; P05106 27-788)", "T2 construct": "also called integrin αvβ3; soluble αvβ3 integrin", "T2 sequence (P06756 31-1048, chain 1 of 2)": "as the sequence (P06756 31-1048, chain 1 of 2) above", "T2 sequence (P05106 27-788, chain 2 of 2)": "as the sequence (P05106 27-788, chain 2 of 2) above", "assay": "yeast display flow cytometry estimate; integrin not given"}, "[4]": {"biological_target": "T1, αvβ3 integrin on cells (U87MG …)", "assay": "approximate value quoted with the imaging results; U87MG competition assay presumed"}, "[5]": {"biological_target": "T1, αvβ3 integrin on cells (U87MG …)"}, "[6]": {"biological_target": "T1, αvβ3 integrin on cells (U87MG …)", "assay": "cell-based or functional assay"}, "[7]": {"biological_target": "T1, αvβ3 integrin on cells (U87MG …)", "assay": "cell-based or functional assay", "remark": "listed apart in the source"}, "[8]": {"biological_target": "T2, αvβ3 integrin (soluble / …)", "assay": "yeast display, flow cytometry, 50 nM integrin, gross estimate"}, "[9]": {"biological_target": "T1, αvβ3 integrin on cells (U87MG …)", "assay": "competition with ^125I-echistatin on U87MG cells"}, "[10]": {"biological_target": "T1, αvβ3 integrin on cells (U87MG …)", "assay": "competition with ^125I-echistatin on U87MG cells (also express αvβ5, α5β1); unlabeled peptide"}, "[11]": {"biological_target": "T2, αvβ3 integrin (soluble / …)", "assay": "competition with ^125I-echistatin on plate-coated detergent-solubilized integrin"}, "[12]": {"biological_target": "αvβ5 integrin (soluble / detergent-solubilized) (UniProt P06756 31-1048; P18084 24-799)", "sequence (P06756 31-1048, chain 1 of 2)": "as the sequence (P06756 31-1048, chain 1 of 2) above", "sequence (P18084 24-799, chain 2 of 2)": "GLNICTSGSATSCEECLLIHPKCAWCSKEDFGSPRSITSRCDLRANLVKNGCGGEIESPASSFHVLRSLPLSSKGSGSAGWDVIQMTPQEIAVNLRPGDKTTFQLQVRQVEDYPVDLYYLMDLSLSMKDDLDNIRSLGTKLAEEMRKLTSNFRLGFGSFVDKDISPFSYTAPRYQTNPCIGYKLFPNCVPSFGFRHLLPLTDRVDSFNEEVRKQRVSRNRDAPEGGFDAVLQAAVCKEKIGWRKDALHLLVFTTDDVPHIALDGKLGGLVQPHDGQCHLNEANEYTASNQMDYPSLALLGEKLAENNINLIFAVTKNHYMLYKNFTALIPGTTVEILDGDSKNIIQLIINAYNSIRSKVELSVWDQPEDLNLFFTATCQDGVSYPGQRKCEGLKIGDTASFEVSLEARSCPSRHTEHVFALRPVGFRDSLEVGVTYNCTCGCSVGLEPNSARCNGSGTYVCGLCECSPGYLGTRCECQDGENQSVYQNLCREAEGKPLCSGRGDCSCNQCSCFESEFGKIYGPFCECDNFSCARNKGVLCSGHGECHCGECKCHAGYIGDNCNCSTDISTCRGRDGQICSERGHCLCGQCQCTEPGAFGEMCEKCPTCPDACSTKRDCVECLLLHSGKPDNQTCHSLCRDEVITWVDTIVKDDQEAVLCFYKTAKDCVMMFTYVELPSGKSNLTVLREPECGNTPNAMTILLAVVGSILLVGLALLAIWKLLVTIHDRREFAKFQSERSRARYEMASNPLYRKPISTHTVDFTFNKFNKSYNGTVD", "assay": "competition with ^125I-echistatin on plate-coated detergent-solubilized integrin"}, "[13]": {"biological_target": "α5β1 integrin (detergent-solubilized) (UniProt P08648 42-1049; P05556 21-798)", "sequence (P08648 42-1049, chain 1 of 2)": "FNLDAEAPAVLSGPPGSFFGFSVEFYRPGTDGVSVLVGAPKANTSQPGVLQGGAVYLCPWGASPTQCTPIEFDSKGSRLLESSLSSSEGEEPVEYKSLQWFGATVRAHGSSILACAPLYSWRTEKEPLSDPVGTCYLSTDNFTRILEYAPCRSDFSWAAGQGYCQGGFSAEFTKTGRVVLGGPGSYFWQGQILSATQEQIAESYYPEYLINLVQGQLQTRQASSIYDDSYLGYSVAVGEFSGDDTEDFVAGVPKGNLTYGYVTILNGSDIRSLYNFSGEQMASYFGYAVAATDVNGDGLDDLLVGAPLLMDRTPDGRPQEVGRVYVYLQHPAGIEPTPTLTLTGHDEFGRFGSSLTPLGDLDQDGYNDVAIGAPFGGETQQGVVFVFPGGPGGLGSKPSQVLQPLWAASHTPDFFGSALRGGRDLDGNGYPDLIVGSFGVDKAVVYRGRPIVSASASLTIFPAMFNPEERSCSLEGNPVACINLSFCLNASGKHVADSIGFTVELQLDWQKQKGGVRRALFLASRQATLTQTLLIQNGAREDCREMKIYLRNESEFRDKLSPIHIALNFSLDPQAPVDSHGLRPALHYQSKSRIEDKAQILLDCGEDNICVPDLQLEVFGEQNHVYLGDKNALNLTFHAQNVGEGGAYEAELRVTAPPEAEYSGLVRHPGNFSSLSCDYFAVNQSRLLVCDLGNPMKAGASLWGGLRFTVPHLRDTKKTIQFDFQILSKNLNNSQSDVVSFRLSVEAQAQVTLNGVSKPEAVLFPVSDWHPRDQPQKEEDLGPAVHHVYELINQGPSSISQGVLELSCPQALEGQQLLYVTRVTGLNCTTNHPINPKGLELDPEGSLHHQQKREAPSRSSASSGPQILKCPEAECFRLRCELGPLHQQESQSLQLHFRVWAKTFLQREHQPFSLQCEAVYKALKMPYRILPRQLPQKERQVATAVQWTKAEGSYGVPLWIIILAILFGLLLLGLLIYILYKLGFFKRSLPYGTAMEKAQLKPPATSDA", "sequence (P05556 21-798, chain 2 of 2)": "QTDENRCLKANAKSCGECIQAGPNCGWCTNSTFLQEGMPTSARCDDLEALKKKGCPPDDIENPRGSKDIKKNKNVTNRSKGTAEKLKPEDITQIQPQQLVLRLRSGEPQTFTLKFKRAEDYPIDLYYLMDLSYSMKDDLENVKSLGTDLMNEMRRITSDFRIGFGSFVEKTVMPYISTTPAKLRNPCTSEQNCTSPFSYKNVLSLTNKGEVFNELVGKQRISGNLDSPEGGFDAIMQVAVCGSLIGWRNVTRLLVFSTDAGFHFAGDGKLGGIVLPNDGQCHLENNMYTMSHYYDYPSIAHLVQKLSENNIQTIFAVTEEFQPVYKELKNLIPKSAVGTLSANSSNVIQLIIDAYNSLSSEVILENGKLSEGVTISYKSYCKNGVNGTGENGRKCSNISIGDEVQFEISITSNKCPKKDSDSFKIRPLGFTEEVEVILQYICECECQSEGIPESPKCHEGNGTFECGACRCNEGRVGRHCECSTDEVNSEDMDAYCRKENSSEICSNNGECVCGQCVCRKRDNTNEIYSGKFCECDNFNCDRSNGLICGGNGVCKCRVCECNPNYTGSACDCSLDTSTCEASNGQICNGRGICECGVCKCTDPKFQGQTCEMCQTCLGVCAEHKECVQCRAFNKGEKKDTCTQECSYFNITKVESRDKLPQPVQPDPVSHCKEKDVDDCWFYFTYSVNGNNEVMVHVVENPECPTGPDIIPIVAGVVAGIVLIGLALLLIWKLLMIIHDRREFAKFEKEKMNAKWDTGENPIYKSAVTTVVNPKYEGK", "assay": "competition with ^125I-echistatin on plate-coated detergent-solubilized integrin"}, "[14]": {"biological_target": "αiibβ3 integrin (soluble / detergent-solubilized) (UniProt P08514 32-1039; P05106 27-788)", "assay": "competition with ^125I-echistatin on plate-coated detergent-solubilized integrin"}, "[15]": {"biological_target": "T3, αiibβ3 integrin on K562 cells stably transfected with αiibβ3 (UniProt P08514 32-1039; P05106 27-788)", "T3 construct": "whole, on cells; also called K562-αiibβ3; K562-αiiβ3", "assay": "titration on K562-αiibβ3 cells up to 5 µM, not saturated"}, "[16]": {"biological_target": "T1, αvβ3 integrin on cells (U87MG …)", "assay": "direct equilibrium titration on U87MG cells, anti-His flow cytometry"}, "[17]": {"biological_target": "T1, αvβ3 integrin on cells (U87MG …)", "assay": "direct equilibrium titration on K562-αvβ3 cells, anti-His flow cytometry"}, "[18]": {"biological_target": "T1, αvβ3 integrin on cells (U87MG …)", "assay": "competition of synthetic 7C by recombinant 7C on U87MG cells, performed analogously"}, "[19]": {"biological_target": "T1, αvβ3 integrin on cells (U87MG …)", "assay": "direct equilibrium titration on U87MG cells"}}, "note": "Read-outs that look alike come from different tables or passages of the source. No end group written: not given here. *: point of attachment. DOTA = O=C(O)CN1CCN(CC(=O)O)CCN(CC(=O)*)CCN(CC(=O)O)CC1"}
{"binder": "B1", "values": [{"measurement": "IC50", "setting": "[1]", "result": 23, "unit": "nM"}, {"measurement": "IC50", "setting": "[2]", "result": 22, "unit": "nM"}]}
{"binder": "GCTGRGDSPASSKCKQDSDCLAGCVCGPNGFCG", "note": "[RGD-EETI #2 (yeast-displayed)]", "values": [{"measurement": "affinity relative to RGD-EETI #3", "setting": "[3]", "result": "~0.5", "unit": "fold"}]}
{"binder": "{DOTA}-GCVTGRGDSPASSCSQDSDCLAGCVCGPNGFCG (cysteine pairing not given here)", "note": "[DOTA-conjugated FN-RGD2]", "values": [{"measurement": "IC50", "setting": "[4]", "result": "~400", "unit": "nM"}]}
{"binder": "QCESGPCCRNCKFLKEGTICKRARGDDMDDYCNGKTCDCPRNPHKGPAT (ligand, ends and bridges not checked; cysteine pairing not given here)", "note": "[echistatin (unlabeled)]", "values": [{"measurement": "IC50", "setting": "[5]", "result": 4.9, "unit": "nM"}, {"measurement": "U87MG cell adhesion to vitronectin, IC50", "setting": "[6]", "result": 5.8, "unit": "nM"}, {"measurement": "adhesion (IC50; nM) of K562-αvβ3 cells to vitronectin-coated wells", "setting": "[7]", "result": 3.2, "unit": "nM"}]}
{"binder": "GCPQGRGDWAPTSCKQDSDCRAGCVCGPNGFCG", "note": "[2.5D (yeast-displayed EETI-based variant)]", "values": [{"measurement": "Kd", "setting": "[8]", "result": "~50", "unit": "nM"}]}
{"binder": "B2", "values": [{"measurement": "IC50", "setting": "[9]", "result": 19, "unit": "nM"}, {"measurement": "IC50", "setting": "[10]", "result": 16, "unit": "nM"}]}
{"binder": "{DOTA}-GCVTGRDGSPASSCSQDSDCLAGCVCGPNGFCG (also: cystine-knot disulfides, pairing not given here)", "note": "[DOTA-conjugated FN-RDG2]", "values": [{"measurement": "binding result", "setting": "[11]", "result": "no binding"}, {"measurement": "binding result", "setting": "[12]", "result": "no binding"}, {"measurement": "binding result", "setting": "[13]", "result": "no binding"}, {"measurement": "binding result", "setting": "[14]", "result": "no binding"}]}
{"binder": "GCVTGRGDSPASSCKQDSDCLAGCVCGPNGFCG (also called FN-RGD; RDG-EETI #3)", "note": "[RGD-EETI #3 (yeast-displayed)]", "values": [{"measurement": "Kd", "setting": "[3]", "result": "100 to 200", "unit": "nM"}]}
{"binder": "{DOTA}-GCPRPRGDNPPLTCSQDSDCLAGCVCGPNGFCG (cysteine pairing not given here)", "note": "[DOTA-conjugated knottin peptide 2.5F]", "values": [{"measurement": "IC50", "setting": "[4]", "result": "~20", "unit": "nM"}]}
{"binder": "B3", "values": [{"measurement": "binding result", "setting": "[9]", "result": "no binding"}, {"measurement": "binding result", "setting": "[11]", "result": "no binding (tested: 50 nM)"}, {"measurement": "binding result", "setting": "[12]", "result": "no binding (tested: 50 nM)"}, {"measurement": "binding result", "setting": "[13]", "result": "no binding (tested: 50 nM)"}, {"measurement": "binding result", "setting": "[14]", "result": "no binding (tested: 50 nM)"}]}
{"binder": "{DOTA}-GCPQGRGDWAPTSCSQDSDCRAGCVCGPNGFCG (cysteine pairing not given here, also called Cu-DOTA-knottin 2.5D)", "note": "[DOTA-conjugated knottin peptide 2.5D]", "values": [{"measurement": "IC50", "setting": "[4]", "result": "~20", "unit": "nM"}]}
{"binder": "B4", "values": [{"measurement": "adhesion (IC50; nM) of K562-αvβ3 cells to vitronectin-coated wells", "setting": "[7]", "result": 12, "unit": "nM"}, {"measurement": "Kd", "setting": "[15]", "result": "> 100", "unit": "nM"}, {"measurement": "Kd", "setting": "[16]", "result": 1.8, "unit": "nM"}, {"measurement": "Kd", "setting": "[17]", "result": 2.4, "unit": "nM"}, {"measurement": "IC50", "setting": "[18]", "result": 23, "unit": "nM"}]}
{"binder": "B5", "values": [{"measurement": "adhesion (IC50; nM) of K562-αvβ3 cells to vitronectin-coated wells", "setting": "[7]", "result": 61, "unit": "nM"}, {"measurement": "fold improvement over the worst binder, 6C", "setting": "[19]", "result": 17, "unit": "fold"}, {"measurement": "Kd", "setting": "[15]", "result": "> 100", "unit": "nM"}, {"measurement": "Kd", "setting": "[16]", "result": 0.78, "unit": "nM"}, {"measurement": "Kd", "setting": "[17]", "result": 0.89, "unit": "nM"}]}
